Assay results published in patent US20230257470A1 (published 2023).
Positions count from the first letter of the chain named. Names and notes keep the numbering of the source.

B1: IL6R-PD042/IL6R-L (antibody, human IgG1)
heavy: QVQLQESGPGLVKPSETLSLTCAVSGHSISHDHAWSWVRQPPGEGLEWIGFISYSGITNYNPSLQGRVTISRDNSKNTLYLQMNSLRAEDTAVYYCARSLARTTAMDYWGEGTLVTVSSASTKGPSVFPLAPSSKSTSGGTAALGCLVKDYFPEPVTVSWNSGALTSGVHTFPAVLQSSGLYSLSSVVTVPSSSLGTQTYICNVNHKPSNTKVDKKVEPKSCDKTHTCPPCPAPEWLGGDSVFLFPPKPKDTLYISRTPEVTCVVVDVSHEDPEVKFNWYVDGVEVHNAKTKPREEQYNSTYRVVSVLTVLHQDWLNGKEYKCKVSNKALPAPIEKTISKAKGQPREPQVYTLPPSRDELTKNQVSLTCLVKGFYPSDIAVEWESNGQPENNYKTTPPVLDSDGSFFLYSKLTVDKSRWQQGNVFSCSVMHEALHYHYTQKSLSLSP
light: DIQMTQSPSSLSASVGDRVTITCRASQDISSYLNWYQQKPGKAPKLLIYYTSRLHSGVPSRFSGSGSGTDFTFTISSLQPEDIATYYCQQGNTLPYTFGQGTKVEIK
notes: Alterations introduced into IL6R-F11; also called P238D/L234W
B2: IL6R-PD043/IL6R-L (antibody, human IgG1)
heavy: B1 heavy with W236Y
light: B1 light
notes: Alterations introduced into IL6R-F11; also called P238D/L234Y
B3: IL6R-PD079/IL6R-L (antibody, human IgG1)
heavy: B1 heavy with W236L, G239A
light: B1 light
notes: Alterations introduced into IL6R-F11; also called P238D/G237A
B4: IL6R-PD080/IL6R-L (antibody)
heavy: B1 heavy with W236L, G239D
light: B1 light
notes: Alterations introduced into IL6R-F11; also called P238D/G237D
B5: IL6R-PD081/IL6R-L (antibody, human IgG1)
heavy: B1 heavy with W236L, G239E
light: B1 light
notes: Alterations introduced into IL6R-F11; also called P238D/G237E
B6: IL6R-PD082/IL6R-L (antibody, human IgG1)
heavy: B1 heavy with W236L, G239F
light: B1 light
notes: Alterations introduced into IL6R-F11; also called P238D/G237F
B7: IL6R-PD087/IL6R-L (antibody, human IgG1)
heavy: B1 heavy with W236L, G239M
light: B1 light
notes: Alterations introduced into IL6R-F11; also called P238D/G237M
B8: IL6R-PD095/IL6R-L (antibody, human IgG1)
heavy: B1 heavy with W236L, G239Y
light: B1 light
notes: Alterations introduced into IL6R-F11; also called P238D/G237Y
B9: IL6R-BP087/IL6R-L (antibody, human IgG1, name in EU numbering)
heavy: B1 heavy with W236Y, Y254M, A332K, Y436N, K441E
light: B1 light
notes: Alterations introduced into IL6R-B3 (EU numbering)

Tests used:
[1] = molecular target: T1, human FcγRIIa type R (human, UniProt P12318 36-217); test: SPR (Biacore), captured antibody, FcγR as analyte; binding amount divided by that of IL6R-F652/IL6R-L, times 100
T1 construct: also called FcγRIIaR; Fc γ RIIaR
T1 chain: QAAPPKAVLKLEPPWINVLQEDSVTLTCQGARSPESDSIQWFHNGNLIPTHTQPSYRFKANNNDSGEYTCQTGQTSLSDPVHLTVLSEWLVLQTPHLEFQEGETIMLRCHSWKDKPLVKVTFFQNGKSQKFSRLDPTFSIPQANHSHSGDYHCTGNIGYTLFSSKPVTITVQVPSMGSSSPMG

[2] = molecular target: T2, human FcγRIIb (human, UniProt P31994 43-217); test: as above
T2 construct: also called FcγIIB
T2 sequence: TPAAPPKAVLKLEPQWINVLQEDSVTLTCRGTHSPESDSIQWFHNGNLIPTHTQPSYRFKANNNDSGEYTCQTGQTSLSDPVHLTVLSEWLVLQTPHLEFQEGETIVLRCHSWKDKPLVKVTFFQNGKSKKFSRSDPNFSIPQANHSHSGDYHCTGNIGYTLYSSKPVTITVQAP

[3] = molecular target: T3, human FcγRIIb (human, UniProt P31994 43-217, limits assumed); test: ratio of SPR KD values: KD for FcγRIIaR divided by KD for FcγRIIb
T3 construct: Whole entry (AAI46679.1); also called FcγIIB; FcgRIIb
T3 sequence: T2 sequence
Description: Next, interaction between these antibodies and FcγR was analyzed kinetically using the BIACORE™ T100 (GE Healthcare). The interaction was measured at a temperature of 25° C. using HBS-EP+ (GE Healthcare) for the running buffer. The Series S Sensor Chip CM5 (GE Healthcare) was used after immobilizing Protein A by amine coupling. […] Antibody captured on the chip was washed by allowing 10 mM glycine-HCl (pH 1.5) to react following measurement. The chip regenerated in this manner was used repeatedly. The dissociation constant KD (mol/L) was calculated from the association rate constant ka (L/mol/s) and dissociation rate constant kd (1/s) as calculated by global-fitting the measurement results with a 1:1 Langmuir binding model using the BIACORE™ Evaluation Software.
Furthermore, KD(IIaR)/KD(IIb) and KD(IIaH)/KD(IIb) in the table respectively represent the value obtained by dividing the KD value of each variant for FcγRIIaR by the KD value of each variant for FcγRIIb, and the value obtained by dividing the KD value of each variant for FcγRIIaH by the KD value of each variant for FcγRIIb.

Binder | RELATIVE BINDING ACTIVITY FOR FcγRIIaR [1] | RELATIVE BINDING ACTIVITY FOR FcγRIIb [2] | KD(IIaR)/KD(IIb) [3]
B1 | 240 relative (IL6R-F652/IL6R-L = 100) | 106 relative (IL6R-F652/IL6R-L = 100) | 
B2 | 175 relative (IL6R-F652/IL6R-L = 100) | 112 relative (IL6R-F652/IL6R-L = 100) | 
B3 | 138 relative (IL6R-F652/IL6R-L = 100) | 101 relative (IL6R-F652/IL6R-L = 100) | 
B4 | 222 relative (IL6R-F652/IL6R-L = 100) | 127 relative (IL6R-F652/IL6R-L = 100) | 
B5 | 117 relative (IL6R-F652/IL6R-L = 100) | 101 relative (IL6R-F652/IL6R-L = 100) | 
B6 | 380 relative (IL6R-F652/IL6R-L = 100) | 108 relative (IL6R-F652/IL6R-L = 100) | 
B7 | 196 relative (IL6R-F652/IL6R-L = 100) | 109 relative (IL6R-F652/IL6R-L = 100) | 
B8 | 543 relative (IL6R-F652/IL6R-L = 100) | 124 relative (IL6R-F652/IL6R-L = 100) | 
B9 |  |  | 15
